B1: minF1; a variant is named by its letters at N, in order (parent)
chain: GAGACCGCAACTGAAAAGTTGTTNNNNAANNNNGGNTNNATTTCTGCACGTAGAAGCAAAAGGC

Variants of: B1
Assay: fraction ligated after 30 min (ligated reads / total reads); higher = more ligase activity
Conditions: with F1*subA RNA substrate (template-directed ligation), 42 °C
Method: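 Chip-synthesised pool of minF1 ligase ribozyme variants (single and double substitutions, single to quadruple deletions, bulge and P2 designed variants) was transcribed with T7 and reacted as a pool with excess substrate F1*subA for 30 min at 42 C in 50 mM EPPS pH 8.5, 25 mM MgCl2. Ligated and unligated RNAs were separated by PAGE, barcoded by RT and deep sequenced; fraction ligated = ligated reads / total reads, relative activity = FL / FL of wild-type minF1 (0.76); sequencing FL correlated with PAGE (R2 = 0.98). Sequences are the DNA template of the ribozyme.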

Row | Variant | fraction ligated
1 | ACGATGGAGTT G34T T37G A40G | 0.00103
2 | TCAGATATGTG T23A | 0.00384
3 | TCGAGGATTGA A29T | 0.00979
4 | ACAGATTGTGA | 0.00539
5 | ACGAGATGTGA A29T | 0.00193
6 | ACGAGATGTGA A29G | 0.00268
7 | ACAGAGGTTGA | 0.00073
8 | TCGAGGAGTGA T23A | 0.00431
9 | TCGATGGTTGA T23A | 0.00216
10 | TCAGAGATGTG T23A | 0.00606
11 | TCAGGGTGTGA T23A | 0.00148
12 | TCGATGGAGTT G34T T37G | 0.00201
13 | TCAGATGAGTA G34T | 0.00143
14 | TCGATGGTGTG T23A | 0.00391
15 | TCAGATGAGTA T23A | 0.00194
16 | TCGATGGATGA T23A | 0.00236
17 | TCAGAGAGTGA T23A | 0.0017
18 | TCAGTGGAGTA G34T | 0.00892
19 | ACAGTGGTTGA | 0.00127
20 | TCAGATGGGTT G34T T37G | 0.00104
21 | ACAGATGGGTT G34T T37G | 0.0016
22 | TCAGAGGAGTT G34T T37G | 0.000958
23 | TCAATGGTGTG | 0.00437
24 | TCAATGGTGTA | 0.00227

Row | Variant | fraction ligated
25 | TCGATGGGTGA | 0.00376
26 | ACAGGGATGTG A29T | 0.00794
27 | ACAGAGTGTGA | 0.00284
28 | ACAGTGGAGTT G34T T37G | 0.00159
29 | TCGATGAGTGA T23A | 0.00204
30 | TCGATGGTTGA | 0.00257
31 | TCAGAGATGTA | 0.000871
32 | TCAGAGATGTG | 0.0039
33 | TCAGAGGATGA | 0.00215
34 | ACAGGGATGTA A29T | 0.00654
35 | ACAGATGTGTG | 0.0127
36 | ACAGATGTGTA | 0.00227
37 | TCAGTGGAGTG G34T | 0.0219
38 | TCGAGGATTGA T23A | 0.00135
39 | ACAGAGATTGA | 0.00246
40 | TCAGTGGAGTG T23A G34T | 0.0406
41 | ACGAGGATTGA | 0.00256
42 | TCAGATGAGTT G34T T37G | 0.0017
43 | TCAGAATGTGA | 0.00302
44 | ACGATGGTTGA | 0.00307
45 | ACGAGGTGTGA | 0.00342
46 | ACAGGGTGTGA A29T | 0.000904
47 | TCAGGGATTGA A29T | 0.00182
48 | ACAGATGAGTA | 0.00413

Row | Variant | fraction ligated
49 | ACAGATGAGTG | 0.00387
50 | TCAGATGAGTT T23A G34T T37G | 0.00034
51 | ACAGATGGGGT G34A G35T T37G A40T | 0.00109
52 | TCAGTGGAGTG T23A | 0.00892
53 | TCAATGGTGTA T23A | 0.00153
54 | TCAGATGGGTT T23A G34A T37G A40G | 0
55 | TCAATGTGTGA | 0.00236
56 | ACAGAGATGTG | 0.00764
57 | ACAGAGATGTA | 0.00268
58 | TCAGATGAGTA T23A G34T | 0.00285
59 | TCAGTGGTGTA | 0.00201
60 | TCAGTGGTGTG | 0.00278
61 | TCAGATGGGTT G34T T37G A40G | 0.000744
62 | TCAGAGATTGA | 0.00355
63 | ACAGAGGTGTA | 0.00348
64 | ACAGAGGTGTG | 0.00409
65 | ACGATGGATGA | 0.0034
66 | TCAGGGTGTGA | 0.00203
67 | TCAGGGAGTGA A29T | 0.00242
68 | TCAGGGATGTG T23A A29T | 0.0102
69 | TCAGTGAGTGA T23A | 0.0046
70 | TCGAGATGTGA A28T A29G | 0.00721
71 | TCGAGGATGTA T23A A29T | 0.00462
72 | TCGAGGAGTGA T23A A29T | 0.00108

Row | Variant | fraction ligated
73 | TCAGTATGTGA T23A | 0.00284
74 | TCAGATGGGTT T23A G34A T37G | 0.000991
75 | TCAGATGGGTG T23A | 0.00293
76 | ACAGGATGTGA A28T A29G | 0.0031
77 | TCGATGGATGA | 0.00257
78 | TCGATGATGTA | 0.00391
79 | TCGATGATGTG | 0.00893
80 | TCAGAGGGTGA T23A | 0.004
81 | TCAGATAGTGA | 0.00299
82 | ACAGTGGGTGA | 0.00475
83 | TCAGAGGAGTA G34T | 0.00236
84 | TCGAGGATGTG T23A A29T | 0.0128
85 | TCAGATGAGTT T23A G34T T37G A40G | 0.00258
86 | TCGAGGAGTGA | 0.00338
87 | TCAGAGGAGTG G34T | 0.00594
88 | TCAGGATGTGA T23A A28T A29G | 0.00354
89 | TCAGAGGTGTG T23A | 0.00531
90 | TCAGAGAGTGA | 0.00182
91 | ACAGTGATGTA | 0.00194
92 | ACAGTGATGTG | 0.00312
93 | ACGAGATGTGA | 0.00357
94 | TCAGAGGAGTG T23A | 0.0042
95 | ACAGTATGTGA | 0.00319
96 | TCAGATGGTGA T23A | 0.0062

Row | Variant | fraction ligated
97 | ACGATGTGTGA | 0.00232
98 | TCAGATGAGTG G34T | 0.00362
99 | ACAGATATGTA | 0.00255
100 | ACAGATATGTG | 0.00478
101 | TCAGGGATTGA T23A | 0.000376
102 | TCAGTGGTTGA T23A | 0.00216
103 | TCAGAGGAGTA T23A G34T | 0.0014
104 | TCAGTGGAGTT T23A G34T T37G A40G | 0.000501
105 | ACGATGAGTGA | 0.0021
106 | ACAGATGGGTT G34A T37G | 0.00125
107 | TCAGGGTGTGA T23A A29T | 0.00472
108 | TCAGATGGGTT G34A T37G A40G | 0.00106
109 | ACAGAGGGTGA | 0.00282
110 | TCAGATGGGTT T23A G34A G35T T37G | 0.00134
111 | TCAGAGGTGTG | 0.00329
112 | TCAGAGGTGTA | 0.0016
113 | ACAGGGAGTGA A29T | 0.00347
114 | ACAGAGGATGA | 0.00191
115 | TCAGATGTTGA | 0.0015
116 | ACGATGGTGTG | 0.00433
117 | ACGATGGTGTA | 0.00204
118 | ACAGAGGAGTT G34T T37G | 0.00192
119 | TCAGATGGGTA T23A G34A | 0.0017
120 | TCAGATGGGTA T23A G34T | 0.00312

Row | Variant | fraction ligated
121 | ACGAGGAGTGA A29T | 0.00454
122 | TCAGTGGAGTA | 0.00247
123 | TCAGTGGAGTG | 0.00572
124 | ACAGATGAGTT G34T T37G | 0.000925
125 | TCAGGGATGTA A29T | 0.000605
126 | TCGATGGAGTA G34T | 0.143
127 | ACGATGATTGA | 0.00224
128 | TCGAGGATGTG | 0.00804
129 | TCGAGGATGTA | 0.00168
130 | TCGATGGTGTA T23A | 0.00392
131 | ACGAGGATGTG | 0.00917
132 | ACGAGGATGTA | 0.00292
133 | TCAGGATGTGA T23A | 0.00221
134 | TCAGATGGGTA | 0.000871
135 | TCAGATGGGTG | 0.005
136 | TCGATGGAGTT T23A G34T T37G A40G | 0.00165
137 | ACAGGATGTGA A29G | 0.00108
138 | ACAGGATGTGA A29T | 0.00171
139 | TCAGGATGTGA | 0.00269
140 | TCAGAGGAGTG T23A G34T | 0.00498
141 | TCAGATGGTGA | 0.00356
142 | TCAGTGGAGTA T23A G34T | 0.0212
143 | ACAGAGAGTGA | 0.00105
144 | TCAGTGATTGA T23A | 0.00266

Row | Variant | fraction ligated
145 | ACAGATGGGTT G34A T37G A40G | 0.000615
146 | ACAGAGGAGTG G34T | 0.00588
147 | ACAGAATGTGA | 0.00222
148 | TCGAGGTGTGA A29T | 0.00308
149 | TCAGAGGAGTT T23A G34T T37G A40G | 0.000303
150 | ACAGATAGTGA | 0.00391
151 | TCGATGATTGA | 0.00257
152 | TCAGATATGTA | 0.00271
153 | TCAGATATGTG | 0.00722
154 | TCAGTGATGTG T23A | 0.00385
155 | ACAGGGAGTGA | 0.00202
156 | TCAATGGTTGA | 0.00179
157 | TCGATGGAGTG T23A G34T | 0.25
158 | TCAGATGGGTT T23A G34T T37G | 0.00101
159 | ACAGATGGGTA G34T | 0.00288
160 | ACAGATGGGTA G34A | 0.00284
161 | TCAGTGATTGA | 0.00169
162 | TCAGATGTGTA T23A | 0.00304
163 | TCGAGGATGTG A29T | 0.0133
164 | ACAGATGATGA | 0.00115
165 | TCGATATGTGA | 0.00214
166 | TCAGATATTGA T23A | 0.00254
167 | TCGATGAGTGA | 0.00207
